# Experimental data taken from article PMC7668070 (2020).
# B1: HCoV-NL63 spike RBD (domain or fragment)
# chain: QHTDINFTATASFGGSCYVCKPHQVNISLNGNTSVCVRTSHFSIRYIYNRVKSGSPGDSSWHIYLKSGTCPFSFSKLNNFQKFKTICFSTVEVPGSCNFPLEATWHYTSYTIVGALYVTWSEGNSITGVPYPVSGI
# Molecular target: WT ACE2(740)-Fc (human, UniProt Q9BYF1 18-740)
# Assay: BLI
binder,measurement,value
B1,Kd,22 nM
